From the nanobody polyreactivity screen of Harvey et al. (2022)

Test: yeast display, Sf9 membrane polyspecificity reagent, FACS + sequencing; frameworks hold sequencing errors
In short: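 Nanobodies came from a synthetic yeast display library in Saccharomyces cerevisiae BJ5465, induced with galactose for 36–48 hours and stained for 1 hour at 4 °C with 10% biotinylated, detergent-solubilized Sf9 membrane reagent. Cells were enriched on streptavidin microbeads and then FACS-sorted, with low and high (top ~1%) gates set on anti-HA fluorescence for expression and streptavidin fluorescence for reagent binding. Each polyreactivity label reflects the gate a clone came from. Genes were amplified by colony PCR, sequenced by MiSeq 2 × 250 and filtered by CDR length.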

Row | Sequence | polyreactivity (PSR sort gate)
1 | QVQLVESGGGLVQAGGSLRLRCAASGITFRYYAMGWYRQAPGQERELVAAITRSGSTTYADSVKGRFTISRDNAKNTVYLQLNSLKPEDTAVYYCAVDYYYLTGGVDYWGQGTQVTVSS | low polyreactivity
2 | QVQLVESGGGLVQAGGSLRLSCAASGFIFSTNFMGWYRQAPGKERELVADINTGGSTSYADSVKGRFTISRDNAKNTVYLQMNSLKPEDTAVYYCAAVLQYYYLSTDDPYDYWGQGTQVTVSS | low polyreactivity
3 | QVQLVESGGGLVQAGGSLRLSCAASGFTFGLYVMGWYRQAPGKERELVAVISRSGGGTYYADSVKGRFTISRDNAKNTVYLQMNSLKPEDSAVYYCAKPFSYITGWYNYWGQGTQVTVSS | high polyreactivity
4 | QVQLVESGGGLVQARGSLRLSCAAYRITFGWYAMGWYRQAHAKERELVASISSSGSTNYADSVKGRFTISRDNAKNTVYLQMNSLKPEDTAVYYCNKDYRRRHYYIYVIEGDYWGQGTQVTVSS | low polyreactivity
5 | QVQLVESGGGSVQAGGSLRLSCAASGFTFRYYAMGWYRQAPGKERELVAGISSRGGSTYYADSVKGRFTISRDNAKNTVYLQMNSLKPEDTAVYYCATERFLLGLGYDYWGQGTQVTVSS | high polyreactivity
6 | QVQLVESGGGLVQAGGSLRLSCAASGIIFFSNTMGWYRQAPGKEREFVAAITWSTGNTYYADSVKGRFTISRDNAKNTVYLQMNSLKPEDTAVYYCYAEYLVITWYGGVEFDYWGQGTEVTVSS | low polyreactivity
7 | QVQLVESGGGLVQAGGSLRLSCAASGSTFWFYAMGWYRQAPGKERELVAAITSSGSSTYYADSVKGRFTISRDNAKNTVYLQMNCLKPEDTAVYYCAADDSNDSPSLYYVAYNYWGQGTQVTVSS | low polyreactivity
8 | QVQLVESGGGLVQAGGSLLLSCAASGSTFSYYAMGWYRPAPGKERELVATITKRGGSTYYADSVKGRFTISRDNAKNTFYVQLNSLKPEDTAVYDCAASYPSRWRATYPTGFEYWGQGTQVTVSS | high polyreactivity
9 | QVQLVESGGGLVQAGGSLRLSCAASGITFVIYAMGWYRQAPGKEREFVAGINWSTGSTYYADTVKGRFTISRDYAKNTVYLQMNSLKPEDTAVYYFNVDAIINAIGAYWYDFDYWGQGTQVTVSS | low polyreactivity
10 | QVQLVESCGGLVQAGGSLRLSCAATGLIIRGNDMVWYRQAPWKERELVAGINSSGSTNYADSVKVRFTISRDNAKNTVYLQMNSLKPEDTAVYYCAARAIVSFDYWGQGTQVTVSS | low polyreactivity
11 | QVQLEESGGGLVQAGGSLSLSCAASGSSLDTYVMGWYRQAPGKEREVVAAISSDTSTNYADSVKGRFTISRDNAKNTVYLQMNSLNPEDTAVYYCAAVGSYYGWYQGFDYWGQGTLVTVSS | low polyreactivity
12 | QVQLVESGGGLVQAGGSLRLSCAASGRIFPTYTMGWYRQAPGKERELVAAITSGGTTYYADSVKGLFTISRDNAKNTVYLQMNSLKPEDTAVYSCAALRPRRGYYYWGQGTQVTVSS | high polyreactivity
13 | QVQLVESGGGLVQAGGILRLSCAASGRTFQGNAMGWSRQAPGKERELVAVIDSGTSTDYADSVKGRFTISRDNAKNTVYLQMNSLKPEDTAVYYCAADGALGYNLRYDYWGQGTQVTVSS | low polyreactivity
14 | QVHLVESGGGLVQAGGSLRLSCAASGSIFQPYAIRWYRQAPGKERELVAAISSSGGSTTYADSVKGRFTISRDNAKNTVYLQMTSLKPEDTAVYYCAADSADDMGYWGQGTQVTVSS | low polyreactivity
15 | QVQLVESGGGLVQAGGSLRLSCAASGYAMGWYRQAPGKERELVAAITRRGGSTYYADSVKGRFTISRDNAKNTVYLQMNSLKPEDTAVYYCAADNPSYNLWYGYWGQGTQVTVSS | low polyreactivity
16 | QVQLVESGGGLVQAGGSLRLSCAASGYTFIVNAIGWYRQAPGKERELVAGISYRGGRTFYADSVKGRFTISRDNAKNTVYLQMNSLKPEDTAVYYCAARKTGIPFYNYDYWGQGTQVTVSS | low polyreactivity
17 | QVQLVESGGGLVQAGGSLRLSCAASGRTFRYYAMGWYRQAPGKERELVAAITSNGGSTYYADSVKGRFTISRDNAKNTVYLQMNSLKPEDTAVYYCNALASRGKYGFDYWGQGTQVTVSS | high polyreactivity
18 | QVQLVESGGGLVQAGGSLRLSCAASGGTFLYYMGWYRQAPGKERELVAAITFSGGSTYYADSVKGRFTISRDNAKNTVYLQMNSLKPEDTAVYYCAAGWYDWPKYLLSVYTYYLYDSWGQGTQVTVSS | low polyreactivity
19 | QVQLVESGGGLVQAGGSLRLSCAASGSTFRRNAMGWYRQAPGKERELVATISTRGGSTYYADSVKGRLTLSRDNAKNTVYLQMNSLKPEDTAVYYCAADRRSGYSRSKYGRGDYWGQGTQVTVSS | high polyreactivity
20 | QVQLVESGGGLVQAGGSLRLSCAASGITFEYYAMGWYRQAPGKERELVAAIDTGGSTNYADSVKGRFTISRDNAKNTVYLQMNSLKPEDTAVYYCAADWSWWDGEDYHFEVDYWGQGTQVTVSS | low polyreactivity
21 | QVQLEESGGGLVQGGGSLRLSCAGSGRIFQLNAMGRYRQAPGIERELVADIRWSSGSTYYADTVKGRFTISRDNAKNSVYFQMYSLKPEDTAVYFCAGRVLYVHRQVYKMDYWGQGTQVTVSS | high polyreactivity
